Like-named read-outs stand apart in the source and are kept apart here. Positions of bridges follow the written chain, without caps; N, C: chain ends. Residues, ends and D or L forms follow the SMILES beside them. *: point of attachment. X1 = O=C(O)c1ccc(-c2c3nc(c(-c4ccc(C(=O)O)cc4)c4ccc([nH]4)c(-c4ccc(C(=O)*)cc4)c4nc(c(-c5ccc(C(=O)O)cc5)c5ccc2[nH]5)C=C4)C=C3)cc1; X2 = O=C(O)C/C(=C/C(=O)*)C(=O)O
Details: EJ xenograft mice; for Plasma Drug concentration / Tumor Drug concentration: i.v. 8 mg/kg; for Plasma Drug concentration: fluorescence; for Tumor Drug concentration: tumor lysate fluorescence
Experimental: Moreover, ex vivo fluorescence imaging of tumor and major organs was performed to investigate the dose-dependent tumor accumulation of Gi-F-CAA (Fig. 3e and Supplementary Fig. 25). […] Subsequently, time-dependent in vivo fluorescence imaging of EJ xenograft mice was conducted to investigate the in vivo biodistribution and metabolism of Gi-F-CAA after administrated with Gi-F-CAA (8 mg/kg in 100 μL PBS). […] Representative time-dependent fluorescence images of tumor tissue lysates and plasma were acquired after intravenous administration with Gi-F-CAA (8 mg/kg in 100 μL PBS) (Fig. 3h).
Firstly, A density of 5 × 10^6 EJ cell resuspended in Matrigel were subcutaneously injected into the right hind of mice to construct EJ xenograft model. When the tumor volume reached about 200–400 mm^3, the mice were administrated with Cy labeled Gi-F (8 mg/kg in 100 μL PBS), Cy labeled Gi-F-SA (8 mg/kg in 100 μL PBS) and Cy labeled Gi-F-CAA (8 mg/kg in 100 μL PBS) by intravenous injection for in vivo fluorescence imaging at different timepoints (10 min, 20 min, 40 min, 1 h, 2 h, 4 h, 8 h, 12 h and 24 h) with in vivo imaging system (IVIS). Meanwhile, the EJ xenograft mice were sacrificed for collecting major organs and tumors to evaluate the biodistribution of Gi-F-CAA.

CC(C)C[C@H](NC(=O)c1ccc(-c2c3nc(c(-c4ccc(C(=O)O)cc4)c4ccc([nH]4)c(-c4ccc(C(=O)O)cc4)c4nc(c(-c5ccc(C(=O)O)cc5)c5ccc2[nH]5)C=C4)C=C3)cc1)C(=O)N[C@@H](CCCCNC(=O)/C=C(/CC(=O)O)C(=O)O)C(=O)N[C@@H](CC(C)C)C(=O)N[C@@H](CCCCN)C(=O)N[C@@H](CC(C)C)C(=O)N[C@@H](CCCCNC(=O)/C=C(/CC(=O)O)C(=O)O)C(=O)NCC(=O)N[C@@H](C)C(=O)N[C@H]1CSSC[C@@H](C(=O)N2CCC[C@H]2C(=O)N[C@H](C(=O)O)C(C)C)NC(=O)[C@@H]2CCCN2C(=O)[C@H](Cc2ccc(O)cc2)NC(=O)[C@H](CC(C)C)NC(=O)[C@@H]2CCCN2C(=O)[C@H](CC(C)C)NC(=O)[C@H](Cc2c[nH]c3ccccc23)NC(=O)[C@H](CC(N)=O)NC1=O [Gi-F-CAA] (X1-LK(X2)LKLK(X2)GACNWLPLYPCPV-OH; disulfide 9-17; C-terminus assumed)
blood circulation half-life (t1/2) (i.v. 8 mg/kg in 100 μL PBS, plasma fluorescence, n = 3 mice): 1.03 ± 0.192 h
Plasma Drug concentration (0.017 h, mice 1): 33.86 µM
Plasma Drug concentration (0.017 h, mice 2): 27.32 µM
Plasma Drug concentration (0.017 h, mice 3): 28.25 µM
Plasma Drug concentration (0.083 h, mice 1): 31.76 µM
Plasma Drug concentration (0.083 h, mice 2): 25.29 µM
Plasma Drug concentration (0.083 h, mice 3): 26.44 µM
Plasma Drug concentration (0.167 h, mice 1): 24.34 µM
Plasma Drug concentration (0.167 h, mice 2): 19.45 µM
Plasma Drug concentration (0.167 h, mice 3): 20.15 µM
Plasma Drug concentration (0.25 h, mice 1): 19.65 µM
Plasma Drug concentration (0.25 h, mice 2): 15.52 µM
Plasma Drug concentration (0.25 h, mice 3): 16.27 µM
Plasma Drug concentration (0.5 h, mice 1): 15.69 µM
Plasma Drug concentration (0.5 h, mice 2): 12.64 µM
Plasma Drug concentration (0.5 h, mice 3): 13.24 µM
Plasma Drug concentration (0.75 h, mice 1): 14.64 µM
Plasma Drug concentration (0.75 h, mice 2): 11.89 µM
Plasma Drug concentration (0.75 h, mice 3): 12.38 µM
Plasma Drug concentration (1 h, mice 1): 13.02 µM
Plasma Drug concentration (1 h, mice 2): 10.61 µM
Plasma Drug concentration (1 h, mice 3): 11.06 µM
Plasma Drug concentration (2 h, mice 1): 7.79 µM
Plasma Drug concentration (2 h, mice 2): 8.53 µM
Plasma Drug concentration (2 h, mice 3): 9.07 µM
Plasma Drug concentration (4 h, mice 1): 6.64 µM
Plasma Drug concentration (4 h, mice 2): 6.59 µM
Plasma Drug concentration (4 h, mice 3): 6.96 µM
Plasma Drug concentration (8 h, mice 1): 3.65 µM
Plasma Drug concentration (8 h, mice 2): 4.12 µM
Plasma Drug concentration (8 h, mice 3): 4.41 µM
Plasma Drug concentration (12 h, mice 1): 2.66 µM
Plasma Drug concentration (12 h, mice 2): 3.28 µM
Plasma Drug concentration (12 h, mice 3): 3.5 µM
Plasma Drug concentration (24 h, mice 1): 1.38 µM
Plasma Drug concentration (24 h, mice 2): 1.99 µM
Plasma Drug concentration (24 h, mice 3): 2.17 µM
Tumor Drug concentration (0.017 h, mice 1): 11.93 µM
Tumor Drug concentration (0.017 h, mice 2): 13.59 µM
Tumor Drug concentration (0.017 h, mice 3): 9.61 µM
Tumor Drug concentration (0.083 h, mice 1): 13.61 µM
Tumor Drug concentration (0.083 h, mice 2): 15.1 µM
Tumor Drug concentration (0.083 h, mice 3): 10.98 µM
Tumor Drug concentration (0.167 h, mice 1): 14.15 µM
Tumor Drug concentration (0.167 h, mice 2): 15.1 µM
Tumor Drug concentration (0.167 h, mice 3): 11.74 µM
Tumor Drug concentration (0.25 h, mice 1): 15.43 µM
Tumor Drug concentration (0.25 h, mice 2): 16.04 µM
Tumor Drug concentration (0.25 h, mice 3): 12.46 µM
Tumor Drug concentration (0.5 h, mice 1): 17.54 µM
Tumor Drug concentration (0.5 h, mice 2): 16.74 µM
Tumor Drug concentration (0.5 h, mice 3): 14.43 µM
Tumor Drug concentration (0.75 h, mice 1): 16.03 µM
Tumor Drug concentration (0.75 h, mice 2): 16.19 µM
Tumor Drug concentration (0.75 h, mice 3): 13.02 µM
Tumor Drug concentration (1 h, mice 1): 14.49 µM
Tumor Drug concentration (1 h, mice 2): 15.3 µM
Tumor Drug concentration (1 h, mice 3): 11.94 µM
Tumor Drug concentration (2 h, mice 1): 12.9 µM
Tumor Drug concentration (2 h, mice 2): 13.97 µM
Tumor Drug concentration (2 h, mice 3): 10.6 µM
Tumor Drug concentration (4 h, mice 1): 10.23 µM

Reference: publication PMC10784468 (Nature Communications, 2024)
